The values below come from publication PMC11266705, “Elf1 promotes transcription-coupled repair in yeast by using its C-terminal domain to bind TFIIH” (Nature Communications, 2024).

For assay [1], the target named is p62 PH domain (Homo sapiens) (UniProt P32780). The note with it: cited from earlier work.
Assay [2] concerns the target p62 (Tfb1) PH domain (Saccharomyces cerevisiae) (UniProt P32776). The note with it: cited from earlier work.
The target of assay [3] is p62 PH domain (Homo sapiens) (UniProt P32780). The settings on record: cited from earlier work. This is another data set of the same source.
Assay [4] has the same target. The note with it: cited from earlier work. This is another data set of the same source.
Assay [5] deals with T1, PH domain (1–115) of TFIIH p62 subunit (S. cerevisiae, UniProt P32776 1-115).
T1 construct: also called PH domain of p62; p62 PH domain; source: E. coli Rosetta 2(DE3), purified (Glutathione Sepharose, released by PreScission protease cleavage)
T1 sequence (looked up): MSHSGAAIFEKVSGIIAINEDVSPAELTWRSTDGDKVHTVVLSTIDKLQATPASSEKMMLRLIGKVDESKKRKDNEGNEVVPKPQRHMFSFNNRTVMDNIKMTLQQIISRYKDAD
The assay can be described thus: pull-down; GST beads with GST-tagged Elf1 proteins mixed with purified PH domain of p62; 23 °C, 1 h; washed twice in 20 mM HEPES pH 7.4, 5% glycerol; SDS-PAGE. The note with it: both partners purified.

Assay [6] concerns the target T1, PH domain (1–115) of TFIIH p62 subunit. Kind of assay: BLI; Octet K2; GST-Elf1-CTD immobilised on GST-specific biosensors; PH domain of p62 at 30, 15, 7.5, 3.75 and 0 µM; 20 mM Tris-HCl pH 7.5, 5% glycerol, 1 mM DTT; association 2 min, dissociation 3 min. The settings on record: both partners purified.

Read-outs that look alike come from different tables or passages of the source.

Sequence of p62 PH domain (Homo sapiens) (P32780 1-108): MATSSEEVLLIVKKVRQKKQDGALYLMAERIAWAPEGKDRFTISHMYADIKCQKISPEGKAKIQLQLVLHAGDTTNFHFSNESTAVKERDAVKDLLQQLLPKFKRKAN

As to TFIIEα TIR (from UniProt P29083), the Kd (in general, the concentration at which binding is half-saturated) in assay [1] was 45 nM.

As to Rad4 TIR (from UniProt P14736), the Kd in assay [2] is 50 nM. Consider UVSSA TIR (from UniProt Q2YD98), for which the dissociation constant Kd in assay [3] is 71 nM. As for DP1 TIR (from UniProt Q14186), in assay [4], the Kd was 35.3 µM.

B1: GST-Elf1 residues 85–122 (domain or fragment, S. cerevisiae, UniProt P36053 85-122, looked up)
chain: GSDTDDGDEGSDSDYESDSEQDAKTQNDGEIDSDEEEV
notes: source: E. coli Rosetta 2(DE3), purified (Glutathione Sepharose, Superdex 200)
Turning to B1, the binding result in assay [5] is given as “binds”.

B2: GST-Elf1 residues 85–113 (domain or fragment, S. cerevisiae, UniProt P36053 85-113, looked up)
chain: GSDTDDGDEGSDSDYESDSEQDAKTQNDG
notes: elongation factor-1 (Elf1), S. cerevisiae, residues 85-113 (truncated CTD); source: E. coli Rosetta 2(DE3), purified (Glutathione Sepharose, Superdex 200)
Turning to B2, the binding result in assay [5] is listed as “binds”.

B3: GST-Elf1-CTD (residues 85–145) (domain or fragment, S. cerevisiae, UniProt P36053 85-145, looked up)
chain: GSDTDDGDEGSDSDYESDSEQDAKTQNDGEIDSDEEEVDSDEERIGQVKRGRGALVDSDDE
notes: also called WT CTD; Elf1 C-terminal domain; source: E. coli Rosetta 2(DE3), purified (Glutathione Sepharose, Superdex 200)
For the molecule B3, the affinity in assay [6], expressed as Kd, was 3.82 µM.

B4: GST-Elf1-CTD Y99A mutant (residues 85–145) (domain or fragment, S. cerevisiae, UniProt P36053 85-145, looked up)
chain: GSDTDDGDEGSDSDAESDSEQDAKTQNDGEIDSDEEEVDSDEERIGQVKRGRGALVDSDDE
notes: also called Y99A GST-Elf1-CTD; Y99A mutant CTD; source: E. coli Rosetta 2(DE3), purified (Glutathione Sepharose, Superdex 200)
In turn, B4 displayed a dissociation constant (Kd) in assay [6] of 7.32 µM.

B5: GST-Elf1-CTD I115A (residues 85–145) (domain or fragment, S. cerevisiae, UniProt P36053 85-145, looked up)
chain: GSDTDDGDEGSDSDYESDSEQDAKTQNDGEADSDEEEVDSDEERIGQVKRGRGALVDSDDE
notes: also called I115A control; source: E. coli Rosetta 2(DE3), purified (Glutathione Sepharose, Superdex 200)
As for B5, the binding result in assay [5] is recorded as “binds”.
